In publication PMC8570342, “Identification of an Isoflavonoid Transporter Required for the Nodule Establishment of the Rhizobium-Fabaceae Symbiotic Interaction” (Frontiers in Plant Science, 2021) one finds Km data, which are given here for 1 protein.

Substrate in this data set: O=c1c(-c2ccc(O)cc2)coc2cc(O)cc(O)c12
Kind of data set: 3H-genistein uptake into yeast microsomal vesicles, rapid filtration, Hanes-Woolf plot. It is filed as biochemical, Lupinus albus. The note with it: labelled compound, 5 mM ATP, 10 mM MgCl2, 0.1 M KCl, pH 7.4, 30 s, empty-vector uptake subtracted, proton-driven. The text has this:
3H-genistein uptake into yeast microsomal vesicles, rapid filtration, Hanes-Woolf plot on LaMATE2 | LaMATE2 mediates an efficient transport of genistein which was characterized by a saturable kinetic

B1: LaMATE2 (Lupinus albus) (protein)
chain: MEESLIPKQVEQKTERYNEEKQKHKVTWNSFSEEMKRICVVAGPMVIVISSQYLLQVVSTMMVGHLGELYLSSAALAISLSSVTGFSLIMGMASGLETICGQAFGGKQYKRIGTQTYTAILSLTLVSFVLSLLWINMERILVFIGQDPLIAHESGKFIIWLIPALFAYAIMQPLVRYFQMQSLLFPMLISSLVALCIHIPLCWALVYKTRLHNVGGALALGISNWSNVIFLALYMRYSSACAKTRAPISMELFHGIWEFFRFAVPSALMICLEWWSFELLVLLSGLLPNPQLETSVLSVCLNTISTLYTIPFGIGAAASTRVSNELGAGNPHTARIAVLAAMSLAVLETCVVTGTLFACRHIFGYIFSNEKEVVDYVTLMAPLVCISVILDSLQGVLTGIARGCGWQHLGVYVNLGAFYLLGIPAAATLAFWFKLRGKGLWIGIQVGSFVQTLLLSIITSGINWEQQANKAKYRLLEDESSAENSLA
notes: full ORF in pNEV, no tag stated; expressed in Saccharomyces cerevisiae YPH499, microsomal membrane vesicles; 12 predicted transmembrane helices
As for B1, the Km (commonly the concentration of substrate that gives half-maximal velocity) came out at 16.2 µM.
